Columns and labels:
[1] = biological target: streptavidin (NEB, Cat #A00160) (UniProt P22629); test: ELISA, streptavidin well without peptide, secondary antibody only
[2] = biological target: recombinant BoHV-1 gE CT-His polypeptide (Bovine herpesvirus type 1) (UniProt Q08101); test: ELISA on coated gE CT-His, secondary antibody only (negative control)
[3] = biological target: recombinant BoHV-1 gE CT-His polypeptide (Bovine herpesvirus type 1) (UniProt Q08101); test: competitive ELISA on gE CT-His; serum, then HRP-MAb 2H8F3 (competitor); negative control reference

Chain of UniProt P22629 (P22629 37-163 limits assumed): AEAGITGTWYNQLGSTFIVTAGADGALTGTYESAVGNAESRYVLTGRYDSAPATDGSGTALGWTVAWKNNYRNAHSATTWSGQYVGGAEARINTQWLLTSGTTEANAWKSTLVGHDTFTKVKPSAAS

Substance	O.D. 450 nm [1] [O.D. 450 nm]	O.D. 450 nm [2] [O.D. 450 nm]	% Inhibition [3] [%]	S/N Ratio [3]
goat anti-mouse IgG [HRP] secondary antibody	0.055	0.057		
inactivated, non-infected fetal calf serum (Atlas biologicals), negative control			0	1

Source: patent US20210011017A1
